The values that follow are results of earlier work, collected in publication PMC4191058.

pKd: −log10 of the molar value.

The target in this data set is NS1 (Influenza A virus) (UniProt Q8QPI8).

As to NS1 (from UniProt Q8QPI8), the pKd – broadly, the negative decadic logarithm of the Kd, by convention in mol/L – was 4.05.
